pKd: −log10 of the molar value.
Assays:
FcεRIα (Homo sapiens) = FcεRIα (Homo sapiens) (UniProt P12319); conditions: cited from earlier work
[1] = molecular target: AF488-Fc (C328A/K367C IgE-Fc Cε3-Cε4 protein labeled with Alexa Fluor 488 at residue 367); assay: other fluorescence titration

pKd [1]	Substance	pKd (FcεRIα (Homo sapiens))
	IgE Fc Fc (Cε2-Cε4) (from UniProt P01854)	> 9.00
7.66	soluble FcεRI α-chain ectodomain (from UniProt P12319 26-205) (receptor)	

— article PMC3504642
